Measured values reported in paper PMC2192030.

Target: Xenopus Mad1 (Xenopus (endogenous in Xenopus egg extract))
Assay: co-IP

percent of Mad2 removed by immunodepletion of Mad1: 20 to 40%
Substance: Xenopus Mad2 (natural protein)
